Reference: the supplement of paper PMC10126150
± gives the standard deviation of the averaged measurements.
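Also: ATP exposure 15 min at 22 °C before imaging.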

The sequences below were run on ATP (assay: switch fluorescence ratio, 500 uM ATP over buffer (Cy3 cluster intensity, sum of 5 cycles each) (fold (ratio)); higher = stronger signal-on switching upon ATP binding; sequences stand for … in TCGTCGGCAGCGTCAGATGTGTATAAGAGACAGTTTTTTTTTTTTTTTTTTTTTTTTT…TC). Details: aptamer strand: ATP DNA aptamer (quencher-CACCTGGGGGAGTATTGCGGAGGAAGG + anchor), 100 nM annealed; ATP concentration: 500 uM.
Summary of the method: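 Values give the fluorescence ratio for each switch-domain sequence, averaged from per-cluster ratios of summed target-cycle to summed buffer-cycle Cy3 intensity. The Cy3-labelled switching-strand clusters sat on a modified Illumina MiSeq flow-cell, were annealed to 100 nM quencher-labelled ATP aptamer, and were imaged in selection buffer, then after 15 min with 500 uM ATP at 22 °C. Five cycles ran with NaOH stripping and re-annealing between them, and clusters outside 100-1000 RFU were excluded.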
AGGGAGGGGG gave a switch fluorescence ratio of 1.01 ± 0.094.
GCTAGGCCTT gave a switch fluorescence ratio of 0.9957 ± 0.0082.
For AATTCGCAGT, the switch fluorescence ratio was 1.17 ± 0.23.
GCTGATACGG was tested, and the switch fluorescence ratio was 1.07 ± 0.027.
GTTGGTGCGG showed a switch fluorescence ratio of 0.999 ± 0.034.
TTTGTATGCA was tested, and the switch fluorescence ratio was 1.04 ± 0.057.
In the case of TCATAAAAGC, the switch fluorescence ratio is reported as 0.99 ± 0.027.
For AGGAATGGTC, the switch fluorescence ratio was 1.02 ± 0.051.
With ACGGAAATTT the switch fluorescence ratio was 1.021 ± 0.0052.
With AATTTGGACT the switch fluorescence ratio was 1.03 ± 0.027.
With GCACCGGCTA the switch fluorescence ratio was 1.16 ± 0.23.
GATTGGTTGC was tested, and the switch fluorescence ratio was 0.9941 ± 0.0019.
AATTTGGCCC gave a switch fluorescence ratio of 1.01 ± 0.031.
With CGCTTGCCAG the switch fluorescence ratio was 0.972 ± 0.027.
In the case of CGGGAGAACC, the switch fluorescence ratio is reported as 0.9981 ± 0.0082.
In the case of AGGGTTATTT, the switch fluorescence ratio is reported as 0.998 ± 0.03.
TGCTCCTGAT was tested, and the switch fluorescence ratio was 1.02 ± 0.055.
With GTTTCGGTTG the switch fluorescence ratio was 0.972 ± 0.05.
Sequence GCGTTTTAAC has a switch fluorescence ratio of 1.019 ± 0.0093.
GCATCAGGCG showed a switch fluorescence ratio of 1.01 ± 0.02.
TTGAGGTCGT showed a switch fluorescence ratio of 1.023 ± 0.0038.
In the case of TACGTTTACG, the switch fluorescence ratio is reported as 1.018 ± 0.0027.
ACGGCTGTCA was tested, and the switch fluorescence ratio was 0.999 ± 0.025.
Sequence GGTGATGGGA has a switch fluorescence ratio of 0.976 ± 0.021.
CAAGGGGGCC was tested, and the switch fluorescence ratio was 1.14 ± 0.18.
Sequence CCATTCTCTC has a switch fluorescence ratio of 0.974 ± 0.082.
TGTTGATACT was tested, and the switch fluorescence ratio was 1.06 ± 0.12.
Work on CTGGTATTAT yielded a switch fluorescence ratio of 1.017 ± 0.0046.
TTACGTGCAT was tested, and the switch fluorescence ratio was 1.01 ± 0.011.
Work on TTTTTCTTAT yielded a switch fluorescence ratio of 1 ± 0.041.
AGAAAATTTC gave a switch fluorescence ratio of 1.04 ± 0.051.
GTAAGTGAGT showed a switch fluorescence ratio of 0.994 ± 0.037.
With GGTTTGGGGA the switch fluorescence ratio was 0.983 ± 0.011.
For TTTTGTAACG, the switch fluorescence ratio was 1 ± 0.034.
Sequence TTGCGGCGGT has a switch fluorescence ratio of 0.983 ± 0.033.
In the case of ACGGACTGGT, the switch fluorescence ratio is reported as 1.18 ± 0.014.
AAAAAATAGG showed a switch fluorescence ratio of 1.01 ± 0.028.
In the case of AGTAAGATTG, the switch fluorescence ratio is reported as 0.9889 ± 0.0026.
Sequence TTGAATATCT has a switch fluorescence ratio of 1.03 ± 0.032.
In the case of TCGTGCACGA, the switch fluorescence ratio is reported as 1.018 ± 0.0062.
Work on CGTTTTTTCT yielded a switch fluorescence ratio of 0.974 ± 0.015.
Work on GTTGTCATGC yielded a switch fluorescence ratio of 1.02 ± 0.033.
With AGACGGTATT the switch fluorescence ratio was 1.056 ± 0.0039.
For ACTGTTTTCG, the switch fluorescence ratio was 1.02 ± 0.028.
For TCGTATGGGT, the switch fluorescence ratio was 1 ± 0.045.
GAATGGTAGT gave a switch fluorescence ratio of 1.025 ± 0.0078.
Sequence GCATTGGTAT has a switch fluorescence ratio of 0.981 ± 0.011.
TTTCTTATTT gave a switch fluorescence ratio of 1 ± 0.013.
TTTTGGTTG was tested, and the switch fluorescence ratio was 0.947 ± 0.045.
For GATTTCACTC, the switch fluorescence ratio was 1 ± 0.026.
With TTACTAAGCT the switch fluorescence ratio was 1.03 ± 0.069.
CATCTCAGTG showed a switch fluorescence ratio of 1.03 ± 0.015.
With TGTCCCTCTT the switch fluorescence ratio was 1.02 ± 0.053.
GGGCCGAATG was tested, and the switch fluorescence ratio was 1.009 ± 0.0025.
ATATCATGTC gave a switch fluorescence ratio of 0.9895 ± 0.0032.
GAGTCGGGGT showed a switch fluorescence ratio of 1.01 ± 0.027.
For TGGTAGACGG, the switch fluorescence ratio was 1.15 ± 0.26.
Sequence TGGTTCCGGG has a switch fluorescence ratio of 1.01 ± 0.02.
For CAGTAGCGG, the switch fluorescence ratio was 1.14 ± 0.018.
TTCCATGGTC was tested, and the switch fluorescence ratio was 1.02 ± 0.014.
Work on CACCCCGGTT yielded a switch fluorescence ratio of 1.12 ± 0.051.
In the case of AGCTTAGTTT, the switch fluorescence ratio is reported as 0.975 ± 0.028.
With TTTTTGCGAT the switch fluorescence ratio was 0.9982 ± 0.0046.
CGAAAGATGG gave a switch fluorescence ratio of 1 ± 0.034.
AAGTTTTGTG showed a switch fluorescence ratio of 0.9869 ± 0.0074.
For GAGGAATGAG, the switch fluorescence ratio was 0.9878 ± 0.005.
For GGAAGGAGTC, the switch fluorescence ratio was 0.991 ± 0.019.
TCTCAGAGTA gave a switch fluorescence ratio of 1 ± 0.012.
In the case of GCAGTATGCT, the switch fluorescence ratio is reported as 1.01 ± 0.062.
Work on CGGGATGGCT yielded a switch fluorescence ratio of 0.996 ± 0.011.
With TTAAGTTAGC the switch fluorescence ratio was 1.06 ± 0.045.
AGGTGTATTG showed a switch fluorescence ratio of 1.03 ± 0.017.
In the case of TTCGGTTTGT, the switch fluorescence ratio is reported as 0.98 ± 0.032.
For GGGGCAGAAA, the switch fluorescence ratio was 1.26 ± 0.45.
In the case of CGGTTGGTAT, the switch fluorescence ratio is reported as 0.969 ± 0.051.
TCGGTTGCTA showed a switch fluorescence ratio of 1.05 ± 0.023.
With GAAGCGGGGC the switch fluorescence ratio was 1.36 ± 0.064.
In the case of CCAAGCATCG, the switch fluorescence ratio is reported as 1.197 ± 0.0062.
TGTTGGGGAC showed a switch fluorescence ratio of 1.023 ± 0.0065.
TTGGTGAGAG gave a switch fluorescence ratio of 0.997 ± 0.019.
CTCTTTGCGA showed a switch fluorescence ratio of 1.404 ± 0.0035.
In the case of GGTTTTTCGG, the switch fluorescence ratio is reported as 1.04 ± 0.014.
CTAGTGCTTG was tested, and the switch fluorescence ratio was 1.008 ± 0.0032.
Work on AATCTACTGA yielded a switch fluorescence ratio of 1.013 ± 0.01.
Work on TTGGGTGCTT yielded a switch fluorescence ratio of 1.02 ± 0.041.
